Results: patent US20150203548A1 (GOVERNMENT OF THE UNITED STATES OF AMERICA AS REPRESENTED …, published 2015)

Target: T1, Staphylococcal Enterotoxin B (SEB) (UniProt P01552 28-266)
T1 sequence: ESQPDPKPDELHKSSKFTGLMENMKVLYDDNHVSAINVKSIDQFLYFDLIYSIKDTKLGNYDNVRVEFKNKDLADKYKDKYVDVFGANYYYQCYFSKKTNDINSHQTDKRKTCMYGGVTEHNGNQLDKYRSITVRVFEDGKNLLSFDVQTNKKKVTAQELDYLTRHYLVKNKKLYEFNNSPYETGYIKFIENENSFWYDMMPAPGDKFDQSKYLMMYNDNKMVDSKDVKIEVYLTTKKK
Assay: SPR on SEB-coated chip

B1: sdAb A3 lacking the disulfide (A3-ds) (VHH)
VHH: EVQLVESGGGLVQAGDSLRLSATASGRTFSRAVMGWFRQAPGKEREFVAAISAAPGTAYYAFYADSVRGRFSISADSAKNTVYLQMNSLKPEDTAVYYVAADLKMQVAAYMNQRSVDYWGQGTQVTVSSAAALEHHHHHH
  binding result: binds
